Publication PMC6941993

Assays:
Test in all cases: SPR; Biacore T200; […]; single-cycle kinetics; […]
[1] = molecular target: GP1_(JUNV)–Fc (Junín virus (JUNV)) (UniProt O10428)
[2] = molecular target: GP1_(MACV)–Fc (Machupo virus (MACV)) (UniProt Q8AZ52)
[3] = molecular target: GP1_(WWAV)–Fc (Whitewater Arroyo virus (WWAV)) (UniProt Q911P0)

stand-alone apical domain (sAD) designed from White-throated woodrat TfR1 (domain or fragment)
Kd [1]: 1000 nM | Kd [2]: 4 nM | Kd [3]: 1000 nM
